Laboratory results published in patent publication US20240132578A1.

Assays:
Test in all cases: cell-based or functional assay
[1] = molecular target: HIV-1 JR-CSF Env E321aA (HIV-1 (isolate JR-CSF, clade B)) (UniProt P20871)
[2] = molecular target: HIV-1 envelope glycoprotein (Env) of isolate 92BR020 (HIV-1)
[3] = molecular target: HIV-1 envelope glycoprotein (Env) of isolate 92RW020 (HIV-1)
[4] = molecular target: HIV-1 envelope glycoprotein (Env) of isolate APV17 (HIV-1)
[5] = molecular target: HIV-1 envelope glycoprotein (Env) of isolate CMU02 (HIV-1)
[6] = molecular target: HIV-1 envelope glycoprotein (Env) of isolate JRFL (HIV-1)
[7] = molecular target: HIV-1 envelope glycoprotein (Env) of isolate MGRM-A-010 (HIV-1)
[8] = molecular target: HIV-1 envelope glycoprotein (Env) of isolate MGRM-C-026 (HIV-1)
[9] = molecular target: HIV-1 92TH021 envelope glycoprotein (Env) on virus (HIV-1, clade AE, isolate 92TH021)
[10] = molecular target: HIV-1 92UG024 envelope glycoprotein (Env) on virus (HIV-1, clade D, isolate 92UG024)
[11] = molecular target: HIV-1 94UG103 envelope glycoprotein (Env) on virus (HIV-1, clade A, isolate 94UG103)
[12] = molecular target: HIV-1 MGRM-D-001 envelope glycoprotein (Env) on virus (HIV-1, clade D, isolate MGRM-D-001)
[13] = molecular target: HIV-1 92RW020 Env (pseudovirus) (HIV-1)
[14] = molecular target: HIV-1 92UG005 Env (pseudovirus) (HIV-1)
[15] = molecular target: HIV-1 93UG077 Env (pseudovirus) (HIV-1)
[16] = molecular target: HIV-1 MGRM-C-028 Env (pseudovirus) (HIV-1)
[17] = molecular target: HIV-1 92BR020 envelope glycoprotein (Env) (HIV-1)
[18] = molecular target: HIV-1 93IN905 envelope glycoprotein (Env) (HIV-1)
[19] = molecular target: HIV-1 Env of pseudovirus ZM233 (HIV-1)
[20] = molecular target: HIV-1 92BR020 envelope glycoprotein (Env), clade B pseudovirus (HIV-1)
[21] = molecular target: HIV-1 92UG005 envelope glycoprotein (Env), clade D pseudovirus (HIV-1)
[22] = molecular target: HIV-1 MGRM-A-010 envelope glycoprotein (Env), clade A pseudovirus (HIV-1)
[23] = molecular target: HIV-1 Env of isolate MG RM-D-001 (subtype D) (HIV-1)
[24] = molecular target: HIV-1 envelope glycoprotein (Env) of isolate MG RM-A-001 (HIV-1)
[25] = molecular target: HIV-1 Env of isolate APV6 (clade B) (HIV-1)
[26] = molecular target: HIV-1 Env of isolate MGRM-A-010 (clade A) (HIV-1)
[27] = molecular target: HIV-1 Env of isolate MGRM-C-026 (clade C) (HIV-1)
[28] = molecular target: HIV-1 Env of isolate MGRM-C-027 (clade C) (HIV-1)
[29] = molecular target: HIV-1 JR-CSF Env N339A (HIV-1 isolate JR-CSF) (UniProt P20871)

5329_C19 (PGT-136) (antibody), sequence (VH): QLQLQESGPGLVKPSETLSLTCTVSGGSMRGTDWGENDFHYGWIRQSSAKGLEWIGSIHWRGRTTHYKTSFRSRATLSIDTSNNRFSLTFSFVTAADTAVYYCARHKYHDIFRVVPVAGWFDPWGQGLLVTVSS
5329_C19 (PGT-136) (antibody), sequence (VL): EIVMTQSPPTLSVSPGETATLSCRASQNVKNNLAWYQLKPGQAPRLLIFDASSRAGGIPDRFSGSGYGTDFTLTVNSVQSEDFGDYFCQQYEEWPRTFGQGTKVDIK
1443_C16 (PG16) (TCN-116) (antibody), sequence (VH): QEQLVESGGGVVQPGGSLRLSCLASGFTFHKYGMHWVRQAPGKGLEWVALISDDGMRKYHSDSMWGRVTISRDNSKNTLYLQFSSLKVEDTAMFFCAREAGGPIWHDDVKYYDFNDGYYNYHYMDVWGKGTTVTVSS
1443_C16 (PG16) (TCN-116) (antibody), sequence (VL): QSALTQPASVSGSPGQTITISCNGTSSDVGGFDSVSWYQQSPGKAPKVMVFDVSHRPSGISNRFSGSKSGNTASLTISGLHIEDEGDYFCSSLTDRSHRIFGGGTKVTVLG

Substance: 5136_H01 (PGT-131) (antibody)
- Fold IC50 increase relative to wild-type [1]: 1.8 fold

Substance: 5141_B17 (PGT-126) (antibody)
- Neutralization IC80 [2]: 0.0457 µg/mL
- Neutralization IC90 [2]: 0.0846 µg/mL
- Neutralization IC95 [2]: 0.152 µg/mL
- neutralization IC50 [2]: 0.0163 µg/mL
- Neutralization IC80 [3]: 0.0168 µg/mL
- Neutralization IC90 [3]: 0.0359 µg/mL
- Neutralization IC95 [3]: 0.0728 µg/mL
- neutralization IC50 [3]: 0.0046 µg/mL
- Neutralization IC80 [4]: 4.43 µg/mL
- Neutralization IC90 [4]: > 10 µg/mL
- Neutralization IC95 [4]: > 10 µg/mL
- neutralization IC50 [4]: 0.501 µg/mL
- Neutralization IC80 [5]: > 10 µg/mL
- Neutralization IC90 [5]: > 10 µg/mL
- Neutralization IC95 [5]: > 10 µg/mL
- neutralization IC50 [5]: > 10 µg/mL
- Neutralization IC80 [6]: 0.0454 µg/mL
- Neutralization IC90 [6]: 0.09 µg/mL
- Neutralization IC95 [6]: 0.169 µg/mL
- neutralization IC50 [6]: 0.014 µg/mL
- Neutralization IC80 [7]: 0.0137 µg/mL
- Neutralization IC90 [7]: 0.0316 µg/mL
- Neutralization IC95 [7]: 0.0687 µg/mL
- neutralization IC50 [7]: 0.0033 µg/mL
- Neutralization IC80 [8]: 0.0345 µg/mL
- Neutralization IC90 [8]: 0.0831 µg/mL
- Neutralization IC95 [8]: 0.185 µg/mL
- neutralization IC50 [8]: 0.0076 µg/mL

Substance: 4877_D15 (PGT-122) (antibody)
- Neutralization IC80 [9]: > 10 µg/mL
- Neutralization IC90 [9]: > 10 µg/mL
- Neutralization IC95 [9]: > 10 µg/mL
- neutralization IC50 [9]: > 10 µg/mL
- Neutralization IC80 [10]: > 10 µg/mL
- Neutralization IC90 [10]: > 10 µg/mL
- Neutralization IC95 [10]: > 10 µg/mL
- neutralization IC50 [10]: > 10 µg/mL
- Neutralization IC80 [11]: 6.58 µg/mL
- Neutralization IC90 [11]: > 10 µg/mL
- Neutralization IC95 [11]: > 10 µg/mL
- neutralization IC50 [11]: 1.46 µg/mL
- Neutralization IC80 [12]: 4.48 µg/mL
- Neutralization IC90 [12]: > 10 µg/mL
- Neutralization IC95 [12]: > 10 µg/mL
- neutralization IC50 [12]: 0.867 µg/mL

Substance: 5123_A06 (PGT-125) (antibody)
- Neutralization by PGT-125, IC50 [13]: 0.0028 µg/mL
- Neutralization by PGT-125, IC80 [13]: 0.011 µg/mL
- Neutralization by PGT-125, IC90 [13]: 0.0248 µg/mL
- Neutralization by PGT-125, IC95 [13]: 0.0526 µg/mL
- Neutralization by PGT-125, IC50 [14]: > 10 µg/mL
- Neutralization by PGT-125, IC80 [14]: > 10 µg/mL
- Neutralization by PGT-125, IC90 [14]: > 10 µg/mL
- Neutralization by PGT-125, IC95 [14]: > 10 µg/mL
- Neutralization by PGT-125, IC50 [15]: 0.0262 µg/mL
- Neutralization by PGT-125, IC80 [15]: 0.0926 µg/mL
- Neutralization by PGT-125, IC90 [15]: 0.206 µg/mL
- Neutralization by PGT-125, IC95 [15]: 0.487 µg/mL
- Neutralization by PGT-125, IC50 [16]: 5.78 µg/mL
- Neutralization by PGT-125, IC80 [16]: > 10 µg/mL
- Neutralization by PGT-125, IC90 [16]: > 10 µg/mL
- Neutralization by PGT-125, IC95 [16]: > 10 µg/mL

Substance: 5329_C19 (PGT-136) (antibody)
- Neutralization IC80 [17]: > 10 µg/mL
- Neutralization IC90 [17]: > 10 µg/mL
- Neutralization IC95 [17]: > 10 µg/mL
- neutralization IC50 [17]: > 10 µg/mL
- Neutralization IC80 [18]: 0.0623 µg/mL
- Neutralization IC90 [18]: 0.156 µg/mL
- Neutralization IC95 [18]: 0.379 µg/mL
- neutralization IC50 [18]: 0.0135 µg/mL

Substance: 1443_C16 (PG16) (TCN-116) (antibody)
- IC50, pseudovirus neutralization (TZM-bl assay) [19]: < 0.01 µg/mL

Substance: 4858_P08 (PGT-123) (antibody)
- IC50, pseudovirus neutralization [20]: 0.013 µg/mL
- IC80 (pseudovirus neutralization) [20]: 0.039 µg/mL
- IC90 (pseudovirus neutralization) [20]: 0.0741 µg/mL
- IC95 (pseudovirus neutralization) [20]: 0.134 µg/mL
- IC50, pseudovirus neutralization [21]: 2.49 µg/mL
- IC80 (pseudovirus neutralization) [21]: > 10 µg/mL
- IC90 (pseudovirus neutralization) [21]: > 10 µg/mL
- IC95 (pseudovirus neutralization) [21]: > 10 µg/mL
- IC50, pseudovirus neutralization [22]: 0.492 µg/mL
- IC80 (pseudovirus neutralization) [22]: 2.79 µg/mL
- IC90 (pseudovirus neutralization) [22]: 6.44 µg/mL
- IC95 (pseudovirus neutralization) [22]: > 10 µg/mL

Substance: PGV04 (antibody)
- IC50 (µg/mL), pseudovirus neutralization [23]: > 50 µg/mL
- IC50 [24]: 6.78 µg/mL

Substance: 1496_C09 (PG9) (TCN-109) (antibody)
- Neutralization IC80 [25]: 1.13 µg/mL
- Neutralization IC90 [25]: 3.21 µg/mL
- Neutralization IC95 [25]: 9.65 µg/mL
- neutralization IC50 [25]: 0.214 µg/mL
- Neutralization IC80 [26]: 0.121 µg/mL
- Neutralization IC90 [26]: 0.242 µg/mL
- Neutralization IC95 [26]: 0.456 µg/mL
- neutralization IC50 [26]: 0.0375 µg/mL
- neutralization IC50 [27]: 0.113 µg/mL
- neutralization IC50 [28]: 2.45 µg/mL

Substance: 5147_N06 (PGT-130) (antibody)
- Fold IC50 increase relative to wild-type [29]: 0.2 fold
